Results: US20260055186A1 (REPERTOIRE IMMUNE MEDICINES, published 2026)
Read-outs that look alike come from different tables or passages of the source.

B1: hCD8 IgG IL2 1× (HC) (other)
VH: EVQLVQSGAEVKKPGATVKISCKASGYTFTDFTMHWVQQAPGKGLEWIGLVNPNNGGNIYAEKFQGRVTLTVDTSTSTAYMELSSLRSEDTAVYYCGRVPLYTSHGMDYWGQGTLVTVSS
VL: EIVLTQSPATLSLSPGERATISCRASESVDSYDINSMHWYQQKPGQAPRLLIYRASHLQSGIPARFSGSGSRTDFTLTISSLEPEDFATYYCQQSNEDPLTFGQGTKLEIK
notes: read as humanized 02A01-VH6-VK3; One wild type human IL-2 on one heavy chain C-terminus; also called hCD8 IgG-IL2(HC)
B2: hCD8 IgG IL2 (LC) (other)
VH: EVQLVQSGAEVKKPGATVKISCKASGYTFTDFTMHWVQQAPGKGLEWIGLVNPNNGGNIYAEKFQGRVTLTVDTSTSTAYMELSSLRSEDTAVYYCGRVPLYTSHGMDYWGQGTLVTVSS
VL: EIVLTQSPATLSLSPGERATISCRASESVDSYDINSMHWYQQKPGQAPRLLIYRASHLQSGIPARFSGSGSRTDFTLTISSLEPEDFATYYCQQSNEDPLTFGQGTKLEIK
notes: read as humanized 02A01-VH6-VK3; Wild type human IL-2 on each light chain C-terminus
B3: 03A01-IgG-IL12 (LC) (other)
VH: DVQFQESGPGLVKPSQSLSLTCTVTGYSITSDFAWNWIRQFPGNELEWMGYISYSGDTNYNPSLRSRISITRDTSKNQFFLQLDSVTTEDTATYYCTIRGYYTDSAFVFWGQGTLVTVSA
VL: DIQMTQSSSYLSVSLGGRVTITCKASDHINNWLAWYQQKPGNAPRLLISGATSLETGVPSRFTGSGSGLDYTLSITSLQTEDVATYYCQQYWNSPFTFGSGTKLEIK
notes: 03A01 IgG with human IL-12p70 linked to the C-terminus of each light chain; human IgG1 Fc with L234A, L235A, P329G, N297A; also called 03A01 IgG IL12p70 (LC)
B4: Murine 03A01 (antibody, V domains shown)
VH: DVQFQESGPGLVKPSQSLSLTCTVTGYSITSDFAWNWIRQFPGNELEWMGYISYSGDTNYNPSLRSRISITRDTSKNQFFLQLDSVTTEDTATYYCTIRGYYTDSAFVFWGQGTLVTVSA
VL: DIQMTQSSSYLSVSLGGRVTITCKASDHINNWLAWYQQKPGNAPRLLISGATSLETGVPSRFTGSGSGLDYTLSITSLQTEDVATYYCQQYWNSPFTFGSGTKLEIK
notes: Recombinantly produced IgG; also called 03-parental; 03-Parent
B5: 02A01-IgG-IL12 (LC) (other)
VH: EVQLQQSGPELVKPGASLKISCKASGYTFTDFTMHWVKQSHGKSLEWIGLVNPNNGGNIYNQNFKGKATLTVDTSSSTAYMELRSLTSEDSSVYYCGRVPLYTSHGMDYWGQGTSVTVSS
VL: DIVLTQSPAFLAVSLGQRATISCRASESVDSYDINSMHWYQQKPGQPPKLLIYRASHLQSGIPARFSGSGSRTDFTLTINFVEADDVATYYCQQSNEDPLTFGAGTKLELK
notes: 02A01 IgG with human IL-12p70 linked to the C-terminus of each light chain; human IgG1 Fc with L234A, L235A, P329G, N297A; also called 02A01 IgG IL12p70 (LC)
B6: Murine 02A01 (antibody, V domains shown)
VH: EVQLQQSGPELVKPGASLKISCKASGYTFTDFTMHWVKQSHGKSLEWIGLVNPNNGGNIYNQNFKGKATLTVDTSSSTAYMELRSLTSEDSSVYYCGRVPLYTSHGMDYWGQGTSVTVSS
VL: DIVLTQSPAFLAVSLGQRATISCRASESVDSYDINSMHWYQQKPGQPPKLLIYRASHLQSGIPARFSGSGSRTDFTLTINFVEADDVATYYCQQSNEDPLTFGAGTKLELK
notes: Recombinantly produced IgG; also called 02-parental; 02-Parent

How the values were obtained:
[1] = target: T1, human CD8 on human T cells (human, UniProt P01732 22-235); test: flow cytometry, human PBMC co-cultured 1 h with the fusion protein, anti-human kappa staining on CD8 T cells (CD8 antibody binding, MFI)
T1 construct: whole, on cells; the antibodies were raised against human CD8 alpha; also called CD8 on human CD8+ T cells; hCD8
T1 sequence (P01732 22-235): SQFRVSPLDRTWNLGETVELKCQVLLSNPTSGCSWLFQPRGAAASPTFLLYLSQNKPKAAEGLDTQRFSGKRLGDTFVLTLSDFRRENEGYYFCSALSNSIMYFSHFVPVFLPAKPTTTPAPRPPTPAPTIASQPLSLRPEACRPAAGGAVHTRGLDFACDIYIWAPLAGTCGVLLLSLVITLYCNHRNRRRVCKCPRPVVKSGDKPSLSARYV
Experimental: (§1) Anti-human CD8-human IL2 molecules were evaluated for their ability to specifically bind and load IL2 on CD8 T cells. Briefly, 1×10⁵ human PBMC were co-cultured with indicated CD8-IL2 (human FC receptor) molecules from one of the concentrations ranging from 0.05 pM to 0.4 nM. Following one hour incubation with molecules, PBMC were washed twice with RPMI complete medium and washed once with PBS. The washed cells were stained with anti-IL2 (MQ1-17H12), anti-human kappa (MHK-49) and lineage surface markers CD3(UCHT1), CD4(SK3) and NK(HCD56) for 20 minutes, after which the cells were washed and analyzed using a flow cytometer. The binding affinity was quantified and represented as mean fluorescence intensity (MFI).

[2] = target: T1, human CD8 on human T cells; test: cell-based or functional assay
[3] = target: T1, human CD8 on human T cells; test: cell-based or functional assay; remark: listed apart in the source
[4] = target: T1, human CD8 on human T cells; test: flow cytometry, human PBMC co-cultured 1 h with the fusion protein, anti-IL2 staining gated on CD8 T cells (IL2 loading, MFI)
Experimental: as §1

[5] = target: T1, human CD8 on human T cells; test: cell-based or functional assay; remark: listed apart in the source
[6] = target: T1, human CD8 on human T cells; test: flow cytometry, CD8+ T cells in human PBMCs, 1 h, PE anti-IL12
Experimental: Fusion proteins 02A01-IgG-IL12 (LC) and 03A01-IgG-IL12 (LC) were evaluated for their ability to specifically target IL12 to CD8⁺ T cells. […] The cells were incubated with media lacking a fusion protein as a negative control. Following 1 hour of incubation with the IL12 fusion constructs, the cells were washed once with complete RPMI medium and prepared for flow cytometry analysis. Cells were washed once with phosphate-buffered saline (PBS) containing 1% bovine serum albumin (PBS/BSA) and then stained with a 1:100 dilution of PE-conjugated anti-IL12 antibody (Clone No. C11.5; BioLegend Cat. No. 501807) in PBS/BSA. Following a 20 minute incubation at room temperature, the cells were washed once with PBS/BSA and then resuspended in PBS/BSA for analysis on a FACSCelesta using Diva software (BD Biosciences). Binding activity was quantified and represented as the mean fluorescent intensity values of IL-12 on either CD8⁺ T cells or NK cells. […] At a saturating dose, there was a 4- to 5-fold more IL-12 bound to CD8⁺ T cells than was bound to NK cells.

[7] = target: T1, human CD8 on human T cells; test: flow cytometry on human CD8+ T cells, titration
Experimental: (§2) The 16 above-referenced humanized 03A01-derived anti-CD8 antibodies were screened for their ability to bind human CD8 by evaluating binding to CD8⁺ T cells. The non-humanized parent (“03-Parent”) and the non-humanized parent comprising a heavy chain D64E liability mutation (“03-Parent-VH-D64E”) were used as controls. […] Cells were washed with 1×phosphate buffered saline (PBS) containing 1 mg/mL bovine serum albumin (PBS/BSA) and then stained with a 1:100 dilution of DyLight650-conjugated anti-human IgG H+L polyclonal antibody (ThermoFisher cat. no. Sa5-10129) in PBS/BSA. Following a 20-30 min incubation at 4° C., the cells were washed once with PBS/BSA, and then resuspended in PBS/BSA for analysis on a FACSCelesta using Diva software (BD Biosciences). The resulting data were analyzed using FlowJo. Data were quantified and reported as Max fluorescence intensity (MFI) of human IgG-Fc. […] Complete replacement of the LCDR1 (antibodies comprising VK4) eliminated binding to the CD8⁺ T cells.
(§3) The binding affinities of five of the above-referenced humanized anti-CD8 antibodies to human CD8 were determined by evaluating binding to CD8 human T cells using the method described above. Binding to human CD8+ T cells was tested at 7 serial 5-fold dilutions of each humanized 03A01 variant (from 50 nM to 3.2 pM). The resulting data were analyzed using FlowJo.

[8] = target: T1, human CD8 on human T cells; test: flow cytometry on human CD3+ T cells, apparent KD, 4PL fit
Experimental: (§4) The amino acid sequences of the resulting murine anti-CD8 antibodies 02A01, 03A01, 04D08, 05F10, and 11F05 are provided in Tables 1-3 herein above. These antibodies were recombinantly produced. Their binding affinity to CD8 expressed on the cell surface was measured by flow cytometry, and their respective binding affinities are reported in Table 8 and Table 9. Briefly, human or cynomolgus monkey CD3⁺ T cells were incubated with […] of anti-CD8 antibodies (from 250 nM to […]) for 30 minutes. Following the incubation, unbound antibodies were washed away, and the bound antibodies were detected with a AlexaFluor-647-labeled anti-human Fc detection antibody. The median fluorescence intensity of AlexaFluor-647 on the live cells was used to evaluate anti-CD8 antibody levels on the cell surface. Binding affinity (KD) values for anti-CD8 antibody T cell binding were determined with GraphPad Prism 7.0 using 4-Parameter logistic regression.

[9] = target: T2, cynomolgus monkey CD8 on cynomolgus cells (cynomolgus monkey); test: flow cytometry on cynomolgus CD3+ T cells, apparent KD, 4PL fit
T2 construct: whole, on cells; also called cynomolgus CD8
Experimental: as §4

[10] = target: T1, human CD8 on human T cells; test: flow cytometry on human CD8+ T cells, titration, apparent KD
Experimental: as §2, §3

[11] = target: T1, human CD8 on human T cells; test: flow cytometry on human CD8+ T cells, titration; remark: listed apart in the source
Experimental: (§5) The 24 humanized 02A01-derived anti-CD8 antibodies (excluding 02A01-VK3(D30E/N35Q)) were screened for their ability to bind human CD8 by evaluating binding to CD8+ T cells. The non-humanized parent (“02-Parent”) and the non-humanized parent comprising a heavy chain M39L liability mutation (“02-Parent-VH-M39L”) were used as controls. […] Cells were washed with 1×phosphate buffered saline (PBS) containing 1 mg/mL bovine serum albumin (PBS/BSA) and then stained with a 1:100 dilution of DyLight650-conjugated anti-human IgG H+L polyclonal antibody (ThermoFisher cat. no. Sa5-10129) in PBS/BSA. Following a 20-30 min incubation at 4° C., the cells were washed once with PBS/BSA, and then resuspended in PBS/BSA for analysis on a FACSCelesta using Diva software (BD Biosciences). The resulting data were analyzed using FlowJo. Data were quantified and reported as Max fluorescence intensity (MFI) of human IgG-Fc. […] Complete replacement of the HCDR1 (antibodies comprising VH5) eliminated binding to the CD8+ T cells.
(§6) Binding to human CD8+ T cells was tested at 7 serial 5-fold dilutions of each tested humanized 02A01 variant (from 50 nM to 3.2 pM). The resulting data were analyzed using FlowJo.

human CD8α/β [12] = target: T3, human CD8α/β (human, UniProt P01732 22-182; P10966 22-170); test: SPR, antibody captured on Protein A chip, hCD8α/β as analyte, 1:1 fit
T3 construct: Soluble heterodimer used in SPR and in the Carterra binning (there printed only as CD8α/β); also called hCD8α/β
T3 sequence (P01732 22-182, chain 1 of 2): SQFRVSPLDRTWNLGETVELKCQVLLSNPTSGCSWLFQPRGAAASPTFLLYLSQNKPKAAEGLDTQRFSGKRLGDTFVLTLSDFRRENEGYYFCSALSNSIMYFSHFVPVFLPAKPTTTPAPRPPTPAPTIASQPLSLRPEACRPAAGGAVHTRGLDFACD
T3 sequence (P10966 22-170, chain 2 of 2): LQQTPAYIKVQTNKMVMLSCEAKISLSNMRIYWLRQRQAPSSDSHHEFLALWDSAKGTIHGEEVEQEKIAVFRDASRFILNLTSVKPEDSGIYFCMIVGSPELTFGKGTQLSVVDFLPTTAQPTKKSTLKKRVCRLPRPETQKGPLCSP
Experimental: (§7) The binding affinities of six of the humanized anti-CD8 antibodies to human CD8 were also determined by surface plasmon resonance (SPR). Briefly, equilibrium dissociation constants for human CD8α/β were determined using a real-time SPR biosensor using a Protein A Sensor Chip (Cytiva) to capture purified anti-CD8 monoclonal antibodies at a concentration of 0.5 nM. SPR binding studies were performed in a buffer composed of Phosphate buffered saline, pH 7.2 containing 0.05% v/v Surfactant P20 (PBS-P20 buffer). Different concentrations of hCD8α/β prepared in PBS-P20 running buffer (ranging from 500 nM to 7.8 nM, 2-fold dilutions) were injected over the anti-CD8 monoclonal antibody captured surface. Association of hCD8α/β to the captured monoclonal antibody was monitored for 400 seconds and the dissociation of hCD8α/β in PBS-P20 running buffer was monitored for 600 sec. All of the binding kinetics experiments were performed at 25° C. Kinetic association (kₐ) and dissociation (kd) rate constants were determined by fitting the real-time sensorgrams to a 1:1 binding model using Scrubber 2.0c curve fitting software.

[13] = target: T1, human CD8 on human T cells; test: flow cytometry on human CD8+ T cells, titration, apparent KD; remark: listed apart in the source
Experimental: as §5, §6

human CD8α/β [14] = target: T3, human CD8α/β; test: SPR, antibody captured on Protein A chip, hCD8α/β as analyte
Experimental: as §7

Row | Binder | EC50 (read off the curve) [1] [nM] | EC50 of pSTAT5 activation in human CD8+ T cells [2] [pM] | EC50 of Ki67 expression (proliferation) in human CD8+ T cells [3] [nM] | EC50 (read off the curve) [4] [nM] | EC50 of pSTAT4 signaling in human CD8+ T cells [5] [pM] | EC50 (read off the curve) [6] [nM] | Kd [8] [nM] | Kd [9] [nM] | other results
1 | B1 | ~0.03 | 0.448 | 0.0689 | ~0.03 | – | – | – | – | –
2 | B2 | ~0.03 | 0.246 | 0.0551 | ~0.03 | – | – | – | – | –
3 | B3 | – | – | – | – | 14.7 | ~0.2 | – | – | –
4 | B4 | – | – | – | – | – | – | 0.86 | 1.77 | Fold Change to Parental Apparent KD [7]: 1 fold; Kd [10]: 0.926 nM
5 | B5 | – | – | – | – | 2.72 | ~0.01 | – | – | –
6 | B6 | – | – | – | – | – | – | 0.047 | 0.075 | Fold Change to Parental Apparent KD [11]: 1 fold; Maximum CD8+ T cell Binding (MFI) [11]: 2900 MFI; Kd (human CD8α/β [12]): 9.29 nM; Kd [13]: 0.057 nM; Fold Change to Parental Calculated KD (human CD8α/β [14]): 1 fold
